Assay results published in EP1960427B1.

What was measured:
[1] = target: heat-aggregated IgG (HAGG); test: cell-based or functional assay
[2] = target: immune complexes consisting of ovalbumin and anti-ovalbumin antibody (OVA ICs); test: cell-based or functional assay
[3] = target: human IgG monomer (Sandoglobulin, Novartis) (human); test: BIAcore equilibrium binding over immobilised IgG
[4] = target: heat-aggregated IgG (HAGG); test: BIAcore equilibrium binding over immobilised HAGG
[5] = target: dimer-IgG (Wright et al.), small immune complex; test: flow cytometry, inhibition of dimer-IgG binding to human neutrophils
[6] = target: heat-aggregated IgG (HAGG); test: flow cytometry, block of HAGG binding to IIA1.6 cells with human FcγRIIb
[7] = target: heat-aggregated IgG (HAGG); test: BIAcore equilibrium binding over immobilised HAGG; two-binding site model, KD1
[8] = target: heat-aggregated IgG (HAGG); test: BIAcore equilibrium binding over immobilised HAGG; two-binding site model, KD2
[9] = target: dimer-IgG (Wright et al.), small immune complex; test: flow cytometry, inhibition of dimer-IgG binding to human neutrophils from two individuals
[10] = target: human IgG monomer (Sandoglobulin, Novartis) (human); test: BIAcore equilibrium binding over immobilised human IgG monomer; two-binding site model, KD1
[11] = target: human IgG monomer (Sandoglobulin, Novartis) (human); test: BIAcore equilibrium binding over immobilised human IgG monomer; two-binding site model, KD2
[12] = target: human IgG monomer (Sandoglobulin, Novartis) (human); test: BIAcore equilibrium binding, receptor injected over immobilised IgG; single-binding site
[13] = target: heat-aggregated IgG (HAGG); test: BIAcore equilibrium binding, receptor injected over immobilised HAGG; single-binding site

Row | IC50 of HAGG-induced platelet activation (CD41 and CD62P positive platelets) [1] [µg/mL] | fold potency over rsFcγRIIa monomer, HAGG-induced platelet activation [1] [fold] | IC50 of TNF-α release from MC/9 cells induced by OVA ICs [2] [µg/mL] | fold potency over rsFcγRIIa monomer, TNF-α release from MC/9 cells [2] [fold] | fold greater avidity than the monomeric receptor [3] [fold] | fold lesser KD1 than the KD of monomeric rsFcγRIIa [4] [fold] | IC50 [5] [µg/mL] | fold more active than rsFcγRIIa monomer [5] [fold] | IC50 [6] [µg/mL] | fold more potent than the monomer protein [6] [fold] | Kd [7] [nM] | Kd [8] [nM] | IC50 [9] [µg/mL] | Kd [10] [nM] | Kd [11] [nM] | Kd [12] [nM] | Kd [13] [nM] | Substance
1 | 3.9 | 5 | 2.1 | 8 | 300 | 300 | 1.1 | 10 | 0.0039 | > 500 | 2.73 | 99 | 0.9 to 1.1 | 3.2 | 100 | – | – | recombinant soluble FcγRIIa head to tail homodimer (rsFcγRIIa dimer), construct of Figure 1 (pBAR397/pBAR427) (from UniProt P12318 34-215; P12318 36-215) (receptor)
2 | – | – | – | – | – | – | 10.5 | – | – | – | – | – | – | – | – | 1700 | 1050 | recombinant soluble FcγRIIa monomer (rsFcγRIIa monomer), expressed in HEK 293E cells from pBAR426 (from UniProt P12318 34-217) (receptor)
3 | 20.9 | – | 17.7 | – | – | – | – | – | 2.08 | – | – | – | – | – | – | – | – | rsFcγRIIa monomer (R&D Systems, Cat # 1330-CD/CF) (from UniProt P12318 36-218) (receptor)
